Test results from patent US20230313187A1, “MODIFICATIONS OF MAMMALIAN CELLS USING ARTIFICIAL MICRO-RNA TO ALTER THEIR PROPERTIES AND THE COMPOSITIONS OF THEIR PRODUCTS” (DNA TWOPOINTO INC., priority 2020, published 2023).
Several values for one entry are separate records, joined by “and”; a condition that tells them apart may be missing. Equal entries are not always repeated.

Legend:
[1] = tested on: Cricetulus griseus interferon receptor subunit 1 mRNA and subunit 2 mRNA; assay: Expression of human interferon beta from CHO cells (ELISA), amiRNA to both interferon receptor subunits; format: cell-based; settings: for Average Titer: average of duplicate cultures; for interferon beta expression compared with the control transposon: control transposon expressed 48 μg/ml; for Titer: 10-day fed batch
Source text: One multi-hairpin amiRNA, with nucleotide sequence SEQ ID NO: 600, comprised five hairpins; the first hairpin comprised a guide strand with nucleotide sequence SEQ ID NO: 103, immediately followed by a loop with nucleotide sequence SEQ ID NO: 241 and passenger strand with nucleotide sequence SEQ ID NO: 188; the second hairpin comprised a guide strand with nucleotide sequence SEQ ID NO: 95, immediately followed by a loop with nucleotide sequence SEQ ID NO: 241 and passenger strand with nucleotide sequence SEQ ID NO: 180; the third hairpin comprised a guide strand with nucleotide sequence SEQ ID NO: 104, immediately followed by a loop with nucleotide sequence SEQ ID NO: 241 and a passenger strand with nucleotide sequence SEQ ID NO: 189; the fourth hairpin comprised a guide strand with nucleotide sequence SEQ ID NO: 97, immediately followed by a loop with nucleotide sequence SEQ ID NO: 241 and a passenger strand with nucleotide sequence SEQ ID NO: 182; the fifth hairpin comprised a guide strand with nucleotide sequence SEQ ID NO: 102, immediately followed by a loop with nucleotide sequence SEQ ID NO: 241 and a passenger strand with nucleotide sequence SEQ ID NO: 187. Two of these five guide strand sequences were a 22 base sequence that was an exact reverse complement of a different region within the Cricetulus griseus interferon receptor subunit 1 mRNA (with nucleotide sequence SEQ ID NO: 19); three of these five guide strand sequences were a 22 base sequence that was an exact reverse complement of a different region within the Cricetulus griseus interferon receptor subunit 2 mRNA (with nucleotide sequence SEQ ID NO: 20). Each passenger strand sequence was complementary to its corresponding guide strand sequence, except that the bases in the passenger strand sequences corresponding to the 5′ base of the guide strand and the twelfth base of the guide strand were changed to be non-complementary.
One multi-hairpin amiRNA, with nucleotide sequence SEQ ID NO: 601, comprised four hairpins; the first hairpin comprised a guide strand with nucleotide sequence SEQ ID NO: 101, immediately followed by a loop with nucleotide sequence SEQ ID NO: 241 and passenger strand with nucleotide sequence SEQ ID NO: 186; the second hairpin comprised a guide strand with nucleotide sequence SEQ ID NO: 99, immediately followed by a loop with nucleotide sequence SEQ ID NO: 241 and passenger strand with nucleotide sequence SEQ ID NO: 184; the third hairpin comprised a guide strand with nucleotide sequence SEQ ID NO: 102, immediately followed by a loop with nucleotide sequence SEQ ID NO: 241 and a passenger strand with nucleotide sequence SEQ ID NO: 187; the fourth hairpin comprised a guide strand with nucleotide sequence SEQ ID NO: 106, immediately followed by a loop with nucleotide sequence SEQ ID NO: 241 and a passenger strand with nucleotide sequence SEQ ID NO: 191. Two of these four guide strand sequences were a 22 base sequence that was an exact reverse complement of a different region within the Cricetulus griseus interferon receptor subunit 1 mRNA (with nucleotide sequence SEQ ID NO: 19); two of these four guide strand sequences were a 22 base sequence that was an exact reverse complement of a different region within the Cricetulus griseus interferon receptor subunit 2 mRNA (with nucleotide sequence SEQ ID NO: 20). Each passenger strand sequence was complementary to its corresponding guide strand sequence, except that the bases in the passenger strand sequences corresponding to the 5′ base of the guide strand and the twelfth base of the guide strand were changed to be non-complementary. […]

[2] = tested on: Homo sapiens alpha-(1,6)-fucosyl transferase (FUT8) mRNA; assay: Inhibition of antibody fucosylation in HEK cell pools, amiRNA directed toward FUT8; format: cell-based
Source text: Two different multi-hairpin amiRNA sequences were designed to target genes involved in the fucosylation pathway in human cells: alpha-(1,6)-fucosyl transferase (FUT8), GDP-Mannose 4,6-dehydratase (GMD), and GDP-fucose transporter 1 (GFT). One Multi-hairpin amiRNA, with nucleotide sequence SEQ ID NO: 202 comprised three hairpins; the first hairpin comprised guide strand sequence SEQ ID NO: 29, immediately followed by loop sequence SEQ ID NO: 241 and passenger strand sequence SEQ ID NO: 114, the second hairpin comprised guide strand sequence SEQ ID NO: 30, immediately followed by loop sequence SEQ ID NO: 241 and passenger strand sequence SEQ ID NO: 115, the third hairpin comprised guide strand sequence SEQ ID NO: 31, immediately followed by loop sequence SEQ ID NO: 241 and passenger strand sequence SEQ ID NO: 116. Each of these three guide strand sequences was a 22 base sequence that was an exact reverse complement of a different region within the Homo sapiens alpha-(1,6)-fucosyl transferase (FUT8) mRNA. Each passenger strand sequence was complementary to its corresponding guide strand sequence, except that the bases in the passenger strand sequences corresponding to the 5′ base of the guide strand and the twelfth base of the guide strand were changed to be non-complementary. The first and twelfth bases of guide strand with SEQ ID NO: 29 are T and T respectively, the corresponding bases in the corresponding passenger strand sequence SEQ ID NO: 114 are C and C respectively. The first and twelfth bases of guide strand with SEQ ID NO: 30 are T and T respectively, the corresponding bases in the corresponding passenger strand sequence SEQ ID NO: 115 are C and C respectively. The first and twelfth bases of guide strand with SEQ ID NO: 31 are T and A respectively, the corresponding bases in the corresponding passenger strand sequence SEQ ID NO: 116 are C and C respectively. Each hairpin in multi-hairpin amiRNA nucleotide sequence SEQ ID NO: 202 further comprised additional stem-stabilizing sequences, with stem sequence SEQ ID NO: 255 immediately preceding the guide strand sequence, and stem sequence SEQ ID NO: 256 immediately following the passenger strand sequence. Multi-hairpin amiRNA nucleotide sequence SEQ ID NO: 202 further comprised an unstructured sequence with SEQ ID NO: 251 to the 5′ of the first hairpin, and an unstructured sequence with SEQ ID NO: 253 to the 3′ of the third hairpin. […]
The multi-hairpin amiRNA sequences were placed to the 3′ of an open reading frame encoding a red fluorescent protein (with nucleotide sequence SEQ ID NO: 279) and followed by a rabbit globin polyadenylation sequence. […]

[3] = interferon beta in supernatant, first of duplicate cultures
[4] = interferon beta, second of duplicate cultures

Molecule | Average Titer [1] [µg/mL] | interferon beta expression compared with the control transposon [1] | Titer [1, 3] [µg/mL] | Titer [1, 4] [µg/mL] | G0 + G1 % (area) ([2]; afucosylated antibody, HEK pool, 7-day transient culture, listed as 202) | Titer ([2]; antibody in culture supernatant, HEK pool, 7-day culture, listed as 202) | reduction of antibody fucosylation ([2]; both replicates of HEK cell pools (Table 3 rows 3 and 4)) | G0F + G1F (% area) ([2]; fucosylated antibody, HEK pool, 7-day transient culture, listed as 202)
SEQ ID NO: 600: five-hairpin amiRNA, two guides to interferon receptor subunit 1 mRNA and three to subunit 2 mRNA (nucleic acid) ATCTGATCTTCTGAAGAAAATATATTTCTTTTTATTCATAGCTCTTAACTAGTGGTGATAGCAATGTCAGCAGTGCCTAAGACTATCAGCAAGAACCAGGGTGAAGCCACAGATGCCTGGTTCTTACTGATAGTCTCAAGTAAGGTTGACCATACTCTACTCTAGTTATATTCTTTAGGCACGAATGTGTGTTTAAAAAAAATAAAAACTAGTGGTGATAGCAATGTCAGCAGTGCCTTAAAATAACACACAAGAGCCATGTGAAGCCACAGATGATGGCTCTTGCGTGTTATTTTCAAGTAAGGTTGACCATACTCTACTCTAGAGTTGTGTTTTAATGTATATTAATGTTACTAATGTGTTTACTAGTGGTGATAGCAATGTCAGCAGTGCCTTTGAAGATAACTTTGTCCCCGGGTGAAGCCACAGATGCCGGGGACAACGTTATCTTCACAAGTAAGGTTGACCATACTCTACTCTAGGTTATTTTTAGTATGATTCTGTAAAAATGAATTAATACTAACTAGTGGTGATAGCAATGTCAGCAGTGCCTTTAAACAGTAAGTAGTCTCTGGGTGAAGCCACAGATGCCAGAGACTAATTACTGTTTACAAGTAAGGTTGACCATACTCTACTCTAGATTTTTCAGATGTATCATCTCTTAAAATACTGTAATTGCAACTAGTGGTGATAGCAATGTCAGCAGTGCCTTAAACAACAATGGATCCCCAAAGTGAAGCCACAGATGTTTGGGGATCAATTGTTGTTTCAAGTAAGGTTGACCATACTCTACTCTAGTCAGTTTTATTGATAGTCTTTTCAGTATTATTGATAATCTT | 79.8 | as much as twice the expression levels of interferon beta as the control transposon | 80.3 | 79.2 |  |  |  | 
SEQ ID NO: 601: four-hairpin amiRNA, two guides to interferon receptor subunit 1 mRNA and two to subunit 2 mRNA (nucleic acid) ATCTGATCTTCTGAAGAAAATATATTTCTTTTTATTCATAGCTCTTAACTAGTGGTGATAGCAATGTCAGCAGTGCCTTAGTGTAGACAACAGTACCTCTGTGAAGCCACAGATGAGAGGTACTATTGTCTACACTCAAGTAAGGTTGACCATACTCTACTCTAGTTATATTCTTTAGGCACGAATGTGTGTTTAAAAAAAATAAAAACTAGTGGTGATAGCAATGTCAGCAGTGCCTTTCCACGTCTGTCTTGTCCTACGTGAAGCCACAGATGGTAGGACAAGCCAGACGTGGACAAGTAAGGTTGACCATACTCTACTCTAGAGTTGTGTTTTAATGTATATTAATGTTACTAATGTGTTTACTAGTGGTGATAGCAATGTCAGCAGTGCCTTAAACAACAATGGATCCCCAAAGTGAAGCCACAGATGTTTGGGGATCAATTGTTGTTTCAAGTAAGGTTGACCATACTCTACTCTAGGTTATTTTTAGTATGATTCTGTAAAAATGAATTAATACTAACTAGTGGTGATAGCAATGTCAGCAGTGCCTTAACACAGTACCGCCTTAGTGCGTGAAGCCACAGATGGCACTAAGGCAGTACTGTGTTCAAGTAAGGTTGACCATACTCTACTCTAGTCAGTTTTATTGATAGTCTTTTCAGTATTATTGATAATCTT | 88.0 | as much as twice the expression levels of interferon beta as the control transposon | 97.3 | 78.6 |  |  |  | 
SEQ ID NO: 202: three-hairpin amiRNA, guides SEQ ID NOs 29, 30, 31 complementary to Homo sapiens FUT8 mRNA (nucleic acid) ATCTGATCTTCTGAAGAAAATATATTTCTTTTTATTCATAGCTCTTAACTAGTGGTGATAGCAATGTCAGCAGTGCCTTTGGTCGTTTATCTCTTCCATCGTGAAGCCACAGATGGATGGAAGAGCTAAACGACCACAAGTAAGGTTGACCATACTCTACTCTAGAGTTGTGTTTTAATGTATATTAATGTTACTAATGTGTTTACTAGTGGTGATAGCAATGTCAGCAGTGCCTTTCATCTACAGTTTGGCTGAAAGTGAAGCCACAGATGTTTCAGCCAACCTGTAGATGACAAGTAAGGTTGACCATACTCTACTCTAGGTTATTTTTAGTATGATTCTGTAAAAATGAATTAATACTAACTAGTGGTGATAGCAATGTCAGCAGTGCCTTTAAATTACACAATATGGCAGTGTGAAGCCACAGATGACTGCCATATCGTGTAATTTACAAGTAAGGTTGACCATACTCTACTCTAGTCAGTTTTATTGATAGTCTTTTCAGTATTATTGATAATCTT |  |  |  |  | 90 % (area) and 89 % (area) | 353 mg/L and 316 mg/L | approximately 90% | 10 % area and 11 % area
